Data as given in paper PMC3817407.

What was measured:
ECF02_2817 = target: T1, ECF02_2817
T1 chain: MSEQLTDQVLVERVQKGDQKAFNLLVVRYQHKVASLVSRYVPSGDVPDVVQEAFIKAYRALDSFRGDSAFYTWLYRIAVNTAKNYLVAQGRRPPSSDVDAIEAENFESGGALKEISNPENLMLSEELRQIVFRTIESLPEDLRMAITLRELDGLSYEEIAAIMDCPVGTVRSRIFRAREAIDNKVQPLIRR

ECF03_1198 = target: T2, ECF03_1198
T2 chain: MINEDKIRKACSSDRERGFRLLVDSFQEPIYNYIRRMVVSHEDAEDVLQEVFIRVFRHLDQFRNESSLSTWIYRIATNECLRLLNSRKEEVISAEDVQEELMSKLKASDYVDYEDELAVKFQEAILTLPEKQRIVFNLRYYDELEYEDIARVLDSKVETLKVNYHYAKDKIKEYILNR

ECF04_1609 = target: T3, ECF04_1609
T3 chain: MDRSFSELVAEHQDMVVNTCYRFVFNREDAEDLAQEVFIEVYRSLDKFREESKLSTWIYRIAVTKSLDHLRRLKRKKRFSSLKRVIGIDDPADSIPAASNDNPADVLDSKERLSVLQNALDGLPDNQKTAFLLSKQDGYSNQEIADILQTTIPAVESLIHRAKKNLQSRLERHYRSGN

ECF11_3726 = target: T4, ECF11_3726
T4 chain: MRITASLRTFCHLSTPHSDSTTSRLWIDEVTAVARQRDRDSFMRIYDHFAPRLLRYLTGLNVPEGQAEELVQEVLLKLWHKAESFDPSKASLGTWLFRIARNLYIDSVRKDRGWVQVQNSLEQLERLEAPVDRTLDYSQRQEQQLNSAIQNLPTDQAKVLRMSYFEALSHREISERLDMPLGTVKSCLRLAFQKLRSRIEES

ECF12_807 = target: T5, ECF12_807
T5 chain: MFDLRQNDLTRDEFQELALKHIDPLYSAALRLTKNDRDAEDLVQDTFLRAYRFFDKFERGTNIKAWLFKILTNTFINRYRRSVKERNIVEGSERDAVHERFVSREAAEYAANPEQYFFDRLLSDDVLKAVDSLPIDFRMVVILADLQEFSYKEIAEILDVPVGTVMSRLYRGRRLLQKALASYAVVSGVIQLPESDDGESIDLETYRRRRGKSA

ECF14_1324 = target: T6, ECF14_1324
T6 chain: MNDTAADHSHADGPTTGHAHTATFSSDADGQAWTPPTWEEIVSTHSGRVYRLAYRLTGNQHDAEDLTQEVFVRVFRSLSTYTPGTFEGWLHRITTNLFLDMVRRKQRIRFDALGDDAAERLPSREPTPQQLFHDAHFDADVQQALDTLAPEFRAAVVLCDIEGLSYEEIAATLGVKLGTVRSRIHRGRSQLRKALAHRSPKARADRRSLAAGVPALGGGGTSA

ECF16_973 = target: T7, ECF16_973
T7 chain: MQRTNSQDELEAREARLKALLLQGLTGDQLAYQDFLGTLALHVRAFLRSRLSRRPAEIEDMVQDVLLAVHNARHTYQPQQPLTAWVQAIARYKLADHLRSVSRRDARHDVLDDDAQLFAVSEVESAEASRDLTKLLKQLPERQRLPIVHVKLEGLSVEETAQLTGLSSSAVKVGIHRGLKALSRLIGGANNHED

ECF17_1458 = target: T8, ECF17_1458
T8 chain: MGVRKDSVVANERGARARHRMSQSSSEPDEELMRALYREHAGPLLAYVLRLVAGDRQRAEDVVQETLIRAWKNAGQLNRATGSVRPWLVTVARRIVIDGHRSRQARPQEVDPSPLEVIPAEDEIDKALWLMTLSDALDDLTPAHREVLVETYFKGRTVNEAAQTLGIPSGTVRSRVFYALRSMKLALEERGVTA

ECF20_992 = target: T9, ECF20_992
T9 chain: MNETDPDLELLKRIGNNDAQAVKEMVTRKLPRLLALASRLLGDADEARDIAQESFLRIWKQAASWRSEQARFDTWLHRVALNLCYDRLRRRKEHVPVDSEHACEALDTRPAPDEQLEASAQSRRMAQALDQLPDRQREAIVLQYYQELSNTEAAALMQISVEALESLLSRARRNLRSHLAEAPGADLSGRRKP

ECF22_1147 = target: T10, ECF22_1147
T10 chain: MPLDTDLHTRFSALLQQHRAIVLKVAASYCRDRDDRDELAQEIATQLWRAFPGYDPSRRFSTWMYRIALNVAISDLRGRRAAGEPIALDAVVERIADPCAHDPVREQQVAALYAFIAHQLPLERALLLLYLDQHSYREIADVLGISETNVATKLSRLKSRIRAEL

ECF27_4265 = target: T11, ECF27_4265
T11 chain: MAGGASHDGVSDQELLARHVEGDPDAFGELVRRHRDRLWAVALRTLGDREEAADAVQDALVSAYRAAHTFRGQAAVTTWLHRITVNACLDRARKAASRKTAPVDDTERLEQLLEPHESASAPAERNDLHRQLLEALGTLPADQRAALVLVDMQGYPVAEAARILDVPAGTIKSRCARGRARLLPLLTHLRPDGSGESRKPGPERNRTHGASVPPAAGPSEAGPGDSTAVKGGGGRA

ECF28_1088 = target: T12, ECF28_1088
T12 chain: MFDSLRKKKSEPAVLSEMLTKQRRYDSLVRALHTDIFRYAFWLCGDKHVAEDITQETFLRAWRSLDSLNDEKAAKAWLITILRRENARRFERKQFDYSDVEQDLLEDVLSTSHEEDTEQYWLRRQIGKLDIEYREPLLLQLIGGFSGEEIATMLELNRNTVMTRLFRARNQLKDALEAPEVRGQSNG

ECF31_34 = target: T13, ECF31_34
T13 chain: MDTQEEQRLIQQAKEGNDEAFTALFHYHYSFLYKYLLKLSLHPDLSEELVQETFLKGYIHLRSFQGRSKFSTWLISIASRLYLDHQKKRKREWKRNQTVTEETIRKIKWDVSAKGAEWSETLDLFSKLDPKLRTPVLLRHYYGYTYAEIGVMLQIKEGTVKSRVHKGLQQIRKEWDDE

ECF33_423 = target: T14, ECF33_423
T14 chain: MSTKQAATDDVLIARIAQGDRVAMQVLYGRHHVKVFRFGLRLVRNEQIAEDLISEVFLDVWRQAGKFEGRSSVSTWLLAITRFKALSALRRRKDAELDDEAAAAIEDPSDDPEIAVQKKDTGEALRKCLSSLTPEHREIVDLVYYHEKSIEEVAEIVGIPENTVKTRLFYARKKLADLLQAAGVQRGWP

B1: AS38_1322 (protein)
chain: MSDGNDARPDARDGHDPGSDARDGHDPGSHARDGHDPGAGPFDGHGPGSDAGDGDDAGPDARDGHGAPAGPAGREQRKHPHDTHDMHDTHDTHAGKGTVNHGPAAQGPDAPGADGPATDEAALRAMMQRAVREMEPSDGTLEHLRRAVPARRARKRQALVGAAAAALFLGTAVPALVHVSNATGAGADPSVAGNASQAQGGASQGKDPAGGQSGVAGTGDTPEDRDKADPKETPGGKEPGAATGAPPSGVPSASSPADVPACAPGSLGPAVASSAEPDSTGVVYGSFRVTNVSSDGCTVTGPGTVVTASLGAAEATRIGTARHAAGDAAAGLPDPSLETASLALAPGAAYEVQFAWVPSETCPTTGGTTGGGSGGPSPDPSPTADTTAAGGTSAGGGEAGPTTQLITEDGPAEGSVSVTYTPEGGSGSATATVSNACAGTVYWTGLLADSGSGA
- fold repression (ECF02_2817): 4.35
- fold repression (ECF03_1198): 5.72
- fold repression (ECF04_1609): 4.63
- fold repression (ECF11_3726): 11.2
- fold repression (ECF12_807): 5.77
- fold repression (ECF14_1324): 8.93
- fold repression (ECF16_973): 4.09
- fold repression (ECF17_1458): 4.75
- fold repression (ECF20_992): 3.28
- fold repression (ECF22_1147): 6.04
- fold repression (ECF26_4464): 5.74
- fold repression (ECF27_4265): 2.33
- fold repression (ECF28_1088): 3.19
- fold repression (ECF31_34): 4.78
- fold repression (ECF33_423): 3.68
